Test results reported in CN105524171A (UNIV PLA 3RD MILITARY MEDICAL, dated 2016).

What was measured:
[1] = biological target: T1, PSMA胞外区蛋白 (重组表达的前列腺特异性膜抗原膜外区) (UniProt Q04609 44-750); experiment: indirect phage ELISA, PSMA extracellular domain coated at 5 μg/mL, HRP-anti-M13 detection
T1 construct: extracellular domain; also called PSMA蛋白; PSMA抗原; not shown: His tag from vector pRAG2a (HisTrap purification, detected with His antibody)

[2] = biological target: T2, 前列腺特异性膜抗原 (PSMA) on LNCaP cells (UniProt Q04609 1-750, limits assumed); experiment: cell ELISA (HRP-anti-M13, OD450) and immunofluorescence on fixed LNCaP cells (PSMA+) against MKN45 cells (PSMA-)
T2 construct: whole, on cells; Cells were fixed with 4% paraformaldehyde before the assay; also called prostate specific membrane antigen
T2 sequence (Q04609 whole entry): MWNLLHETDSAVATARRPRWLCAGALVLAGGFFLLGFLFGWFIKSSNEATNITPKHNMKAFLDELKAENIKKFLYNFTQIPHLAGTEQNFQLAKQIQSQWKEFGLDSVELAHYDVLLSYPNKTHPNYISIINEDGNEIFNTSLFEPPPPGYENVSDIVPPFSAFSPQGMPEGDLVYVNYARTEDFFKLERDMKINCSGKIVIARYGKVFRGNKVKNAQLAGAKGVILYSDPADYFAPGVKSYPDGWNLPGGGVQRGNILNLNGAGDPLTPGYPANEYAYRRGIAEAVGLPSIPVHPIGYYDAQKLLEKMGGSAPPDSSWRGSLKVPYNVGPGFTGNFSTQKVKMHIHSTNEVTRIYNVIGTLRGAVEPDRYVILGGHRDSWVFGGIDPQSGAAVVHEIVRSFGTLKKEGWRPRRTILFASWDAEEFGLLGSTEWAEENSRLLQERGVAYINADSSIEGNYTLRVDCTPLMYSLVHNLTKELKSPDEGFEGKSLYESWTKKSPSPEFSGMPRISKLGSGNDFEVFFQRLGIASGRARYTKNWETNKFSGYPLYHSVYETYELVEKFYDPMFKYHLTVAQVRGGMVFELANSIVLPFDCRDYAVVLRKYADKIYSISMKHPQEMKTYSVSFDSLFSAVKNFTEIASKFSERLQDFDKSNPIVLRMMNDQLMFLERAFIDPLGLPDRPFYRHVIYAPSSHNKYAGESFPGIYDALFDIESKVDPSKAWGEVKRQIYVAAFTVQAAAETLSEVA

T1 sequence (Q04609 44-750): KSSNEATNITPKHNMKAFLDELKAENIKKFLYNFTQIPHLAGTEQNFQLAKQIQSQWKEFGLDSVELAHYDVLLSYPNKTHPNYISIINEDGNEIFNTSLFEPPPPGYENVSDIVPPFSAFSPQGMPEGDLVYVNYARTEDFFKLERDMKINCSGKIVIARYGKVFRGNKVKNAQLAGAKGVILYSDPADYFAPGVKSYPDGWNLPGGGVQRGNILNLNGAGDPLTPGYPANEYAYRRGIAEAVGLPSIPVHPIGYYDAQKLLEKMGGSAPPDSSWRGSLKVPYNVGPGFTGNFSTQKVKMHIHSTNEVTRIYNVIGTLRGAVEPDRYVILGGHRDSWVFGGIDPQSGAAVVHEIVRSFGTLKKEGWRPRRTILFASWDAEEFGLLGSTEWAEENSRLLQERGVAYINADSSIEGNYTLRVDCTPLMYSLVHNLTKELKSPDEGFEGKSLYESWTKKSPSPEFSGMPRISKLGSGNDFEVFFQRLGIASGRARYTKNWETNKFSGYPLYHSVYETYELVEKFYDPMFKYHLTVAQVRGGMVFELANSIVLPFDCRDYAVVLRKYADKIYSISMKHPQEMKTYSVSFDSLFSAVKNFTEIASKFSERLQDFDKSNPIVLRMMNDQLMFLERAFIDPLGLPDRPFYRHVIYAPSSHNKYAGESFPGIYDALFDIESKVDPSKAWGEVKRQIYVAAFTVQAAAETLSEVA

B1: 抗前列腺特异性膜抗原单域重链抗体噬菌体阳性克隆 (VHH, not shown: large carriers)
VHH: QLQLVESGGGLVQAGGSLRLSCVVSGRPFSRYTMGWFRQAPGKERELVATIWRRGNTYYANYADAVTGRFTISRDNAKNTAYLQMNSLELEDTAIYYCAAGRTSWGQNPSEYGYWGQGTQVTVSS
notes: also called 针对前列腺特异性膜抗原的单域重链抗体阳性克隆; 展示本发明所述纳米抗体的噬菌体克隆
Q: Does B1 bind [1]?
A: binds

Q: Does B1 bind [2]?
A: binds
